Test results taken from PMC10213515.

Target: FtsZ (UniProt P0A9A6)
Experiment: PL recruitment assay (SUV co-sedimentation by low-speed centrifugation, SDS-PAGE)
Conditions: FtsZ 3 μM, GTP 2 mM, FtsA wild type or mutant 2.5 μM, SUVs 250 μg ml-1, ATP 4 mM; parent: 93.7

Sequence of UniProt P0A9A6 (P0A9A6 whole entry): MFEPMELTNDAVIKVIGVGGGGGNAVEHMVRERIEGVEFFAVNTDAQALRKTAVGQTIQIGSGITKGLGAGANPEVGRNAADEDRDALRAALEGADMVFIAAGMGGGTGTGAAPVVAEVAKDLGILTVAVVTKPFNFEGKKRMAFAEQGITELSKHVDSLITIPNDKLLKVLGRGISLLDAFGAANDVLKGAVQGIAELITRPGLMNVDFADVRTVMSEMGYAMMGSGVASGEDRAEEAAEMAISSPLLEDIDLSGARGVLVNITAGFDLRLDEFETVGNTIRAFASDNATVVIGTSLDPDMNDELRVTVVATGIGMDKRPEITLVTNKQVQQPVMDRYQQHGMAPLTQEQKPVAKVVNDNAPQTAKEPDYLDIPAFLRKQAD

| response | Substance |
| --- | --- |
| 83.8 % of total | FtsA wild type (from UniProt P0ABH0) E14R |
| 97.2 % of total | FtsA wild type (from UniProt P0ABH0) S84L |
| 95.3 % of total | FtsA wild type (from UniProt P0ABH0) A188V |
| 41.1 % of total | FtsA wild type (from UniProt P0ABH0) Y375A |
